Two substances from patent US20100317083A1 can be followed below.

The target of assay [1] is human IgG3 purified from human plasma (human) (UniProt P01860). Description: cell-based or functional assay.
Assay [2] shares this target. Description: SPR (BIAcore), IgG3 immobilized, EndoS(E235Q) injected, deglycosylated IgG flow cell as reference. (In general: In SPR one partner is held on a chip, and binding of the other changes the refractive index at the surface.)

Sequence of UniProt P01860 (P01860 whole entry, form in doubt): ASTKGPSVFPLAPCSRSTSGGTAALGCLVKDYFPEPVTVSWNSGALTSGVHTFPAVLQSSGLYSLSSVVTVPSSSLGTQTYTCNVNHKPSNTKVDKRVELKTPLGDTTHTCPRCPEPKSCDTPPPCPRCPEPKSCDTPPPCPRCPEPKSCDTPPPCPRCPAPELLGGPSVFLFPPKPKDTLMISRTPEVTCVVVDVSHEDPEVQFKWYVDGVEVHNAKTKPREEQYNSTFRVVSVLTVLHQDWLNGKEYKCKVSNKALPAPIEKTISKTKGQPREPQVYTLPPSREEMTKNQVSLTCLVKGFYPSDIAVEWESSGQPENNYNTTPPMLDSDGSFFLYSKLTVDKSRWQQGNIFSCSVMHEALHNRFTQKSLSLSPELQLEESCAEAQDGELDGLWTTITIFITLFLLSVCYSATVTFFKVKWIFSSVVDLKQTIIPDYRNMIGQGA

“EndoS (Endoglycosidase S) from S. pyogenes AP1, recombinant, without GST (from UniProt Q99Y92 37-995) (enzyme)” had an SDS-PAGE migration of IgG after incubation with EndoS; LCA lectin blot in assay [1] of 3 kDa.

Consider “EndoS(E235Q), modified EndoS polypeptide lacking IgG endoglycosidase activity (from UniProt Q99Y92 37-995) (enzyme)”, for which, in assay [2], the Kd was 83 nM, the koff amounted to 0.0089 s⁻¹ and the kon was 107000 M⁻¹ s⁻¹.

Broadly, the Kd is the concentration at which binding is half-saturated. Lower therefore signals higher affinity. A word on the koff: it is a measure of how fast the partners let go of each other. A lower koff goes with slow dissociation. Broadly, the kon is the second-order rate constant of association. A lower kon goes with slow association.
